Assay results taken from patent US20230250157A1 (CALIFORNIA INSTITUTE OF TECHNOLOGY, published 2023).

B1: M8a-6 (antibody, V domains shown)
VH: QVQLQQPGTELVMPGASVKLSCKTSGYTFTHYWMHWVKQRPGEGLEWIGEIAPSDNYVKYNQKFKGKSTLSVDRSSSTAYMQLSSLTSEDSAVYFCARPDNSGYPVYFDYWGQGTSLTVSS
VL: DIVMTQSQKFMSTSLGDRVSISCKASQDVGTTVAWYQQKPGQSPKLLIYWASTRHTGVPDRFTGTGSGTDYTLTISSVAAEDLALYYCQQHYNTPYTFGGGTKLEIE
B2: M8a-6 Fab (Fab, V domains shown)
VH: B1 VH
VL: B1 VL
B3: M8a-34 Fab (Fab, V domains shown)
VH: QVQLQQPGAELVKPGASVKMSCKASGYTFITYWITWVKQRPGQGLEWIGDIYPGGGRTNYNEKFKSKATLTVDTSSSTAYMQLRSLTSEDSAVYYCARYDGNYVGYYYAMDYWGQGTSVTVSS
VL: DIVLTQSPVSLAVSLGQRATISCRASESVDFYGNSFIYWYQQKPGQAPKLLIYRASNLESGIPARFSGSGSRTDFTLTIHPVEADDVATYYCQQSIEDPRTFGGGTKLEIK
B4: M8a-34 (antibody, V domains shown)
VH: B3 VH
VL: B3 VL
B5: HSW-1 (antibody, V domains shown)
VH: QVQLQQPGAELVKPGTSMKLSCKASGYTFTSYWMHWVKQRPGQGLEWIGMIHPNSGSTKYNENFKSKATLTVDKSSSTAYMQFSSLTSEDSAVYYCVRSGSYYGTTYDYFDYWGQGTTLTVSS
VL: DIVLTQSPASLAVSLGQRATISCRASESVNIYGNSFMHWYQQKPGQPPKLLIFRASNLESGIPVRFSGSGSRTDFTLTINPVEADDVATYYCHQSNEDPFTFGSGTKLEIK
B6: M8a-3 (antibody, V domains shown)
VH: QVQLQQPGAELVLPGASVKLSCKASGYTFTNYWMHWVKQRPGHGLEWIGEIDPFDTYIKINQKFKGKSTLTVDTSSSTAYMQLSSLTSEDSAVYYCARPDSSGYPVYFDYWGQGTTLTVSS
VL: DIVMTQSHKFMSTSVGDRVSITCKASQDVGTYIAWYQQKPGQSPKLLIYWASTRHTGVPDRFTGSGSGTNYTLTISSVQAEDLALYHCQQHYSTPYTFGGGTKLEIK
B7: M8a-31 (antibody, V domains shown)
VH: EVQLKQSVAELVRPGASVKVSCTASGFNIKNIYMHWVKQRPEQGLDWIGRIDPANGNSRYAPKFQDKATITADTSSNTAYLQLSSLTSEDTAIYYCADEGWGFANWGQGTLVTVSA
VL: DIVMTQSPSSLTVTAGEKVTMSCKSSQSLLNSGNQKNYLTWYQQKVGQPPKLLIYWASTRDPGVPDRFTGSGFGTDFTLTISSVQAEDLAVYYCQNDYSYPLTFGAGTKVELK
B8: M8a-25 (antibody, V domains shown)
VH: EVQLQQSVAELVRPGASVKLSCTASGFNIKNTYMHWVKQRPEQGLEWIGRIDPSIDHTRYAPKFQGKAVITAFTSSNTAYLQLSSLTSEDTAIYYCAREGGGNYPYYYAIDYWGQGTSVTVSS
VL: DIQMTQSSSSFSVSLGDRVTITCKASEDIYIRLAWYQQRPGNAPRLLISNAISLETGVPSRFSGSGFGKDHTLSITSLQTEDVATYYCQQYWSTPWTFGGGTKLEIK
B9: M8a-28 (antibody, V domains shown)
VH: QVQLQQPGAELVKPGASVKMSCKASGYNFNHYWISWVKQRPGQGLEWIGDIYPLSHFTTYNEKFTNRATLTVDTSSTTAYMQLNSLTSDDSAVFYCARWDYFDSRTFDYWGQGTTLTVSS
VL: DILLTQFPAILSVSPGERVSFSCRASQTIGTNIHWYQQRINGSPRLLIKYASESISGIPSRFSGSGSGTDFSLSINNVESEDIADYYCQQINSWPLTFGAGTKLDLK
B10: M8a-7 (antibody, V domains shown)
VH: QAYLQQSGAEMVRPGASVKMSCKASGYTFNNYNMHWVKQTPSQGLEWIGGFYPGNDDTAYSQKFKGKATLTVDKSSSTAFMHLSSLTSEDSAVYFCARSLGRYYAMDYWGQGTSVTVSS
VL: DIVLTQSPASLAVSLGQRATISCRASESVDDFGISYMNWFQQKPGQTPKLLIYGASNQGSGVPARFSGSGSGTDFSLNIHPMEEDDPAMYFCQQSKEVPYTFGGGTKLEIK
B11: HSW-2 Fab (Fab, V domains shown)
VH: QVQLQQSGPELVKPGASVKISCKASGYVFSTSWMSWVKQRPGEGPEWIGRIYPRDGHSSSTGKFKDKATLTADKSSNTAYIHLSSLTSEDSAVYFCARDYGYYYFDYWGQGTTLTVSS
VL: DIQMTQSPASLSASVGEAVTITCRLSENVYSFLAWYQQKQGKSPQLLVYRAKTLAEGVPSRFSGSGSGTQFSLKINSLQPEDFGTYYCQHHYGTPPTFGGGTKLEIK
B12: HSW-2 (antibody, V domains shown)
VH: B11 VH
VL: B11 VL

Tests used:
SARS-CoV-2 WA1 RBD [1] = biological target: T1, SARS-CoV-2 WA1 RBD (SARS-CoV-2 WA1, UniProt P0DTC2 319-539); experiment: Beacon optofluidic screen: IgG secreted by single B cell, RBD on beads
T1 construct: range 319-539

SARS-CoV-2 WA1 RBD [2] = biological target: T1, SARS-CoV-2 WA1 RBD; experiment: X-ray crystallography of SEC-purified Fab-RBD complex
SARS-CoV-2 WA1 RBD [3] = biological target: T1, SARS-CoV-2 WA1 RBD; experiment: X-ray crystallography of SEC-purified Fab-RBD complex (PDB 7UZC)
SARS-CoV RBD [4] = biological target: T2, SARS-CoV RBD (SARS-CoV, UniProt P59594 318-510); experiment: Beacon optofluidic screen: IgG secreted by single B cell, RBD on beads
SARS-CoV RBD [5] = biological target: T2, SARS-CoV RBD; experiment: ELISA, coated RBD, purified IgG
SARS-CoV-2 WA1 RBD [6] = biological target: T1, SARS-CoV-2 WA1 RBD; experiment: ELISA, purified IgG
SARS-CoV-2 WA1 RBD [7] = biological target: T1, SARS-CoV-2 WA1 RBD; experiment: X-ray crystallography of SEC-purified Fab-RBD complex (PDB 7UZD)

Binder | binding result (SARS-CoV-2 WA1 RBD [1]) | binding result (SARS-CoV RBD [4]) | other results
B1 | binds | – | –
B2 | – | – | binding result (SARS-CoV-2 WA1 RBD [2]): binds
B3 | – | – | binding result (SARS-CoV-2 WA1 RBD [3]): binds
B4 | binds | binds | –
B5 | binds | – | binding result (SARS-CoV RBD [5]): no binding (tested: up to 100 µg/mL IgG)
B6 | – | binds | –
B7 | – | binds | binding result (SARS-CoV-2 WA1 RBD [6]): binds
B8 | – | binds | –
B9 | – | binds | –
B10 | – | binds | –
B11 | – | – | binding result (SARS-CoV-2 WA1 RBD [7]): binds
B12 | binds | – | binding result (SARS-CoV RBD [5]): no binding (tested: up to 100 µg/mL IgG)
